Consider 2 molecules from publication PMC7948760, “Regulation of factor V and factor V-short by TFPIα: Relationship between B-domain proteolysis and binding” (The Journal of Biological Chemistry, 2021).

What all share (details): both partners purified
Assay [1] addresses T1, FV-short-QQ (FV-short with Arg709 and Arg1545 replaced with Gln) (human).
T1 construct: coagulation factor V, FV-short with both thrombin cleavage sites changed to Gln, not cleaved by thrombin; source: BHK cells, purified
The assay can be described thus: fluorescence polarisation; competition: unlabeled TFPIα-BR (0–2 μM) or TFPIα (0–1 μM) titrated into 25 nM OG488-TFPIα-BR, 20 nM FV-short-QQ and 50 μM PCPS, assay buffer, 25 °C; stoichiometry of 1 assumed. On the technique in general: Polarisation of emitted light reports the rotation of a fluorescent probe.

In assay [2] the target is T2, FV-short (factor V isoform with B-domain residues 756 to 1458 deleted) (human).
T2 construct: coagulation factor V, splicing isoform FV-short, single chain, lacks the BR and retains AR2; source: BHK cells, purified
The assay can be described thus: inhibition of prothrombinase (prothrombin activation assay); 0.1 nM cofactor species, 50 μM PCPS, 1.4 μM prothrombin, 3 μM DAPA, TFPIα-BR 0–7 μM, started with 2 nM FXa, assay buffer, 25 °C; Ki from the equation for competitive inhibition.

Assay [3] concerns the target T1, FV-short-QQ (FV-short with Arg709 and …). The description is as above.
Assay [4] concerns the target T3, FV-short-RQ∗ (FV-short-RQ precleaved at Arg709 with thrombin) (human, UniProt P12259 29-737; P12259 738-2224, Δ756–1458 | Arg^1545 replaced with Gln).
T3 construct: coagulation factor V heavy chain (HC), released by cleavage at Arg709; coagulation factor V, rest of the shortened B-domain with AR2 joined to the light chain; also called FV-short cleaved at Arg709; source: FV-short-RQ (BHK cells, purified), 300 nM incubated with 2 nM thrombin 30 min at 37 °C, quenched with hirudin
T3 sequence (looked up) 1: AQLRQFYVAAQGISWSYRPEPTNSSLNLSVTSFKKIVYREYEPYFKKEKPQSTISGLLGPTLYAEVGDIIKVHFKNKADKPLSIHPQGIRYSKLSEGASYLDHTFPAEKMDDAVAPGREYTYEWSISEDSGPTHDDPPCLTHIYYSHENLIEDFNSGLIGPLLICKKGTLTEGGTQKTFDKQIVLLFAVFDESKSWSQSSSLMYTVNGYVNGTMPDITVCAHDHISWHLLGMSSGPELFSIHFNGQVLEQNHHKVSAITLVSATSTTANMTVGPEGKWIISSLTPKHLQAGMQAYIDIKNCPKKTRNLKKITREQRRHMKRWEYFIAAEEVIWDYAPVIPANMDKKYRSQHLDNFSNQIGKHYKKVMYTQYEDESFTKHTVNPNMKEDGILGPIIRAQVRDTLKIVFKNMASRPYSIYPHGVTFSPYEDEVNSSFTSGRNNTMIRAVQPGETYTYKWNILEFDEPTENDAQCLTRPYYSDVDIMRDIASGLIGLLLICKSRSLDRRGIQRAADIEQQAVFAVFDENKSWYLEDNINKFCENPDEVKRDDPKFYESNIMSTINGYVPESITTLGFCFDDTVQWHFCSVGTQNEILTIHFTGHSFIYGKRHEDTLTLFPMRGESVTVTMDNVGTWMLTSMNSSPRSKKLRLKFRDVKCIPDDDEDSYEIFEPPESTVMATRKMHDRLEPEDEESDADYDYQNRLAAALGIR
T3 sequence (looked up) 2: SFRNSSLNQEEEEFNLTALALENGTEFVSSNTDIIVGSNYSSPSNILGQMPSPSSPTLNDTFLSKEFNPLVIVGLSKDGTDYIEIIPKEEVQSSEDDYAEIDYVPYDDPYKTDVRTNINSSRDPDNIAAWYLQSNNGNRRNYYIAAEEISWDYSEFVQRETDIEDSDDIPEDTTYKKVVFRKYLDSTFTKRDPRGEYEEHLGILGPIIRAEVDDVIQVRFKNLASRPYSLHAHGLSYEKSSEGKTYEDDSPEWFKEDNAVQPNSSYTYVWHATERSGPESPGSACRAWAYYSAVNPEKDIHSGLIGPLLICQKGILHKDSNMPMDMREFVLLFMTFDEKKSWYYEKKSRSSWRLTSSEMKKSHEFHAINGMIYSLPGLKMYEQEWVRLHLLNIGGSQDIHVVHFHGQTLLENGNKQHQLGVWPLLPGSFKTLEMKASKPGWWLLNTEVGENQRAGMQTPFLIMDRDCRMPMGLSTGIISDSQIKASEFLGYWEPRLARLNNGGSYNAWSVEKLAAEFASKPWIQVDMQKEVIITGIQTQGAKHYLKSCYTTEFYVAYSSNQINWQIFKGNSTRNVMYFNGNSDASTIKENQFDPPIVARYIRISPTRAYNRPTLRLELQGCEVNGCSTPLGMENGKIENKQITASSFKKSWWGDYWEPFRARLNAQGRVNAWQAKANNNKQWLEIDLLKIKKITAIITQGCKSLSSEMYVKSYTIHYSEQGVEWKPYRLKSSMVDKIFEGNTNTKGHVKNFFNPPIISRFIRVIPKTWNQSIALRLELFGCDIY
The assay is described as above.

Assay [5] deals with T4, activated factor V (FVa) (human, UniProt P12259 29-737; P12259 1574-2224).
T4 construct: coagulation factor V heavy chain (HC; domains A1-A2); coagulation factor V light chain (LC; domains A3-C1-C2); source: prepared by treatment of FV-short (BHK cells) with thrombin, purified
T4 sequence (looked up) 1: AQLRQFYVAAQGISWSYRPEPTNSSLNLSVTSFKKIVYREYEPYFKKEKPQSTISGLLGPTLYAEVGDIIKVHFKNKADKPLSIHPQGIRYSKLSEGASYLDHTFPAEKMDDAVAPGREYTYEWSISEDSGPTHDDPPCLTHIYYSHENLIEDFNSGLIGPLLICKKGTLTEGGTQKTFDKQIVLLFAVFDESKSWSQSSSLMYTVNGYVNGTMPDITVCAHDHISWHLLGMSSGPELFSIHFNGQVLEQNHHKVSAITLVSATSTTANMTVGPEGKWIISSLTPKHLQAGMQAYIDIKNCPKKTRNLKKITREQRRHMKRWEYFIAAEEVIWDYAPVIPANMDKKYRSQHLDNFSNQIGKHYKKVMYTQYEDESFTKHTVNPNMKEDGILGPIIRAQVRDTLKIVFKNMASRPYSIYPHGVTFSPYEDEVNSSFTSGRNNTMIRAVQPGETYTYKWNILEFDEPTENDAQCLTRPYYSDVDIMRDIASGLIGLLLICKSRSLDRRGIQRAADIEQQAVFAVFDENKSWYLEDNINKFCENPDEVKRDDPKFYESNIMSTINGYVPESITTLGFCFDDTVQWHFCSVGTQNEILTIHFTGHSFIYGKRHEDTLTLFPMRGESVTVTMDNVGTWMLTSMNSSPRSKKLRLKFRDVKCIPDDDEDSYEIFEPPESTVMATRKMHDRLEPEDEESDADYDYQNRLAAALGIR
T4 sequence (looked up) 2: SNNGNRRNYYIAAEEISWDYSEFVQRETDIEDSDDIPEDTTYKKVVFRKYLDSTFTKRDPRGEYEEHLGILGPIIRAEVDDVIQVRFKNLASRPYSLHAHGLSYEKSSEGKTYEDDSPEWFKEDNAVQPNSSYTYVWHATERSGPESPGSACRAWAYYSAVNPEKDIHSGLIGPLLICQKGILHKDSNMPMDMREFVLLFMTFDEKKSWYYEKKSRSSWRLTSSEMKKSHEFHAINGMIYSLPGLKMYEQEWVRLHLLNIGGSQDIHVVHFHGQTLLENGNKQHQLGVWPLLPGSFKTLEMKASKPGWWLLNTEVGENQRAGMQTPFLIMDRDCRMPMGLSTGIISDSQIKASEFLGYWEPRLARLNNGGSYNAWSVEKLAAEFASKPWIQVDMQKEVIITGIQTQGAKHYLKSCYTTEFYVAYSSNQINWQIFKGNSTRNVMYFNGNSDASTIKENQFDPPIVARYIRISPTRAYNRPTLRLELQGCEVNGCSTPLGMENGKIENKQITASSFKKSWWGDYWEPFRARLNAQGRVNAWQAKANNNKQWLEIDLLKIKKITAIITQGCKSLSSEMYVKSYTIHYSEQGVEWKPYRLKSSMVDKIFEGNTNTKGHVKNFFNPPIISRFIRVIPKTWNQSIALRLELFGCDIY
Described as above.

Assay [6] has as its target T2, FV-short (factor V isoform with …). The assay is described as above. This is another data set of the same source.
Assay [7] addresses T1, FV-short-QQ (FV-short with Arg709 and …). The description is as above. The source holds these as a separate data set.
For assay [8], the target named is T3, FV-short-RQ∗ (FV-short-RQ precleaved at …). Described as above. This is another data set of the same source.
Assay [9] has as its target T5, FV-short-QR∗ (FV-short-QR precleaved at Arg1545 with RVV-V) (human, UniProt P12259 29-1573; P12259 1574-2224, Δ756–1458 | Arg^709 replaced with Gln).
T5 construct: coagulation factor V heavy chain joined to the shortened B-domain with AR2; coagulation factor V light chain (LC), released by cleavage at Arg1545; also called FV-short cleaved at Arg1545; source: FV-short-QR (BHK cells, purified), 300 nM incubated with 2 nM RVV-V 30 min at 37 °C
T5 sequence (looked up) 1: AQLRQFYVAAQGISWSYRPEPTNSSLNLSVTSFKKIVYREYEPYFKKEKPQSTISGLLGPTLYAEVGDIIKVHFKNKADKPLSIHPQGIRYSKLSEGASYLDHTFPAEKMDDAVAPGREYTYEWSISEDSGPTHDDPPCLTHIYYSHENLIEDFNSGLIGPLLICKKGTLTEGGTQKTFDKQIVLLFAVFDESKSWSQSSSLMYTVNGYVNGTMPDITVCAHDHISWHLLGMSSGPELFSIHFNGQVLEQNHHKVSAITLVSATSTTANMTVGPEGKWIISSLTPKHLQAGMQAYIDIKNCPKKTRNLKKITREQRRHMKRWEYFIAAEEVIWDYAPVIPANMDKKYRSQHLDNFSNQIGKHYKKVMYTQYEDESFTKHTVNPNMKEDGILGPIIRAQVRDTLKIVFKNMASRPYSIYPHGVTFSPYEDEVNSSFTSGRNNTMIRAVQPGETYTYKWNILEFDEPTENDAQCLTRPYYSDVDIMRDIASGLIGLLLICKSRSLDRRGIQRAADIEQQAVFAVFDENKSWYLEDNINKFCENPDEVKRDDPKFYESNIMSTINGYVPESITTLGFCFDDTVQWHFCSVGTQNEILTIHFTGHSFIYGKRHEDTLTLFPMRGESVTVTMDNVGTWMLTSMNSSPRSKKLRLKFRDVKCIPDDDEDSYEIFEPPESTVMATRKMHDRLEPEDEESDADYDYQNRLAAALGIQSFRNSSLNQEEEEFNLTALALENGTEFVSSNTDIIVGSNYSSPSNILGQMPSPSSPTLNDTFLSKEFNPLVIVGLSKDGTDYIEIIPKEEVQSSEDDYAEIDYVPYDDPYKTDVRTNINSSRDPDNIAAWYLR
T5 sequence (looked up) 2: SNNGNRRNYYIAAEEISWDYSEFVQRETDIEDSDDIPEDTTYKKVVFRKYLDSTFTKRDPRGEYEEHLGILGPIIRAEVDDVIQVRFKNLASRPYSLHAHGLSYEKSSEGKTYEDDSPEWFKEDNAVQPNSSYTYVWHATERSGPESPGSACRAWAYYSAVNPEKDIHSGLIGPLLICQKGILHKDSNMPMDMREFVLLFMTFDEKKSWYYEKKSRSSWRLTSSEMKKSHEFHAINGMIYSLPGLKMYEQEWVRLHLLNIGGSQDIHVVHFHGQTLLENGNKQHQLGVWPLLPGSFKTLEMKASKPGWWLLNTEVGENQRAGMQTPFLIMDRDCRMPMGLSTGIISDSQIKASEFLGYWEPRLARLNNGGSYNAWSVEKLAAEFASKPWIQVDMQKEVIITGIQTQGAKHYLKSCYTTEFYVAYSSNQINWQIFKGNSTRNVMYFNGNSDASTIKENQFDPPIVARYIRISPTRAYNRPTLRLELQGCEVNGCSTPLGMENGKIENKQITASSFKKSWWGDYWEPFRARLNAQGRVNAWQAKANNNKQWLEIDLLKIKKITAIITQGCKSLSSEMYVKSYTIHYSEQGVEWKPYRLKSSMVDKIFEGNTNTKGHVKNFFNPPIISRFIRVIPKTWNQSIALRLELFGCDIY
The assay is described as above.

In assay [10] the target is T2, FV-short (factor V isoform with …). The experiment in a line: fluorescence polarisation; steady-state anisotropy; FV species (0–100 nM) titrated into 20 nM OG488-TFPIα-BR and 50 μM PCPS, assay buffer (20 mM HEPES, 0.15 M NaCl, 5 mM CaCl2, 0.1% PEG 8000, pH 7.4), 25 °C; fit to independent, noninteracting sites.
Assay [11] has as its target T3, FV-short-RQ∗ (FV-short-RQ precleaved at …). The assay is described as above.

Ends that are not written are not given here.

B1: TFPIα-BR, fragment containing the BR sequence of TFPIα (domain or fragment)
chain: KKGFIQRISKGGLIKTKRKRKKQRVKIAYEEIFVKNM
modifications: limits not printed (refs 17, 18); taken as the whole C-terminal tail after Kunitz 3 (mature 240-276); expressed in E. coli, unglycosylated
In the case of B1, in [1], binding was characterised by a dissociation constant (Kd) of 2.25 ± 0.2 nM. The Ki (in general, a dissociation constant, usually derived from enzyme kinetics or from competition with a known ligand) is 19.8 nM in assay [2]; 21.5 nM in assay [3]; 86.1 nM in [4]; more than 7000 nM in assay [5]; 23.6 nM in assay [6]; 23.4 nM in [7]. For the same molecule, the Ki in [8] is 83.9 nM; in assay [9] it was more than 7000 nM.

B2: OG488-TFPIα-BR, TFPIα-BR modified with Oregon Green488 maleimide (domain or fragment)
chain: {C(Oregon Green488 maleimide)}-KKGFIQRISKGGLIKTKRKRKKQRVKIAYEEIFVKNM
Take B2: the Kd (in general, the equilibrium constant for the complex coming apart) in assay [10] was 0.71 ± 0.11 nM; in [11] it was 2.16 ± 0.25 nM.
